Test results as given in patent publication US10704030B2, “P450-BM3 variants with improved activity” (Codexis, Inc., priority 2015, dated 2020).
Positions count from the first letter of the chain named. Numbers in names are those of the source.

B1: Variant 6: P450-BM3 variant of SEQ ID NO: 2: V51S; D118R; L219Y; K236H; P351T; S353T; N579T; T582A; E624D; A632S; D727S; Q931K (protein)
chain: MLMKQASAIPQPKTYGPLKNLPHLEKEQLSQSLWRIADELGPIFRFDFPGSSSVFVSGHNLVAEVCDEERFDKSIEGALEKVRAFSGDGLATSWTHEPNWRKAHNILMPTFSQRAMKRYHEKMVDIATQLIQKWSRLNPNEEIDVADDMTRLTLDTIGLCGFNYRFNSFYRDQPHPFITSMVRALDEAMNKLQRANPDDPAYDENKRQFQEDIKVMNDYVDSIIAERRANGDQDEHDLLARMLNVEDPETGEKLDDENIRFQIITFLIAGHETTSGLLSFAIYCLLTHPEKLKKAQEEADRVLTDDTPEYKQIQQLKYIRMVLNETLRLYPTAPAFSLYAKEDTVLGGEYTITKGQPVTVLIPKLHRDQNAWGPDAEDFRPERFEDPSSIPHHAYKPFGNGQRACIGMQFALQEATMVLGLVLKHFELINHTGYELKIKEALTIKPDDFKITVKPRKTAAINVQRKEQAEQSAKKVRKKAENAHNTPLLVLYGSNMGTAEGTARDLADIAMSKGFAPQVATLDSHAGNLPREGAVLIVTASYNGHPPDNAKQFVDWLDQASADEVKGVRYSVFGCGDKTWAATYQKVPAFIDETLAAKGAENIADRGEADASDDFEGTYEEWRDHMWSDVASYFNLDIENSEDNKSTLSLQFVDSAADMPLAKMHGAFSTNVVASKELQQPGSARSTRHLEIELPKEASYQEGDHLGVIPRNYEGIVNRVTARFGLSASQQIRLEAEEEKLAHLPLAKTVSVEELLQYVELQDPVTRTQLRAMAAKTVCPPHKVELEALLEKQAYKEQVLAKRLTMLELLEKYPACEMKFSEFIALLPSIRPRYYSISSSPRVDEKQASITVSVVSGEAWSGYGEYKGIASNYLAELQEGDTITCFISTPQSEFTLPKDPETPLIMVGPGTGVAPFRGFVQARKQLKEQGKSLGEAHLYFGCRSPHEDYLYQEELENAQSEGIITLHTAFSRMPNQPKTYVQHVMEQDGKKLIELLDQGAHFYICGDGSQMAPAVEATLMKSYADVHQVSEADARLWLQQLEEKGRYAKDVWAG
modifications: P450_BM3
notes: D118R; L219Y; K236H; P351T; S353T; N579T; T582A; E624D; A632S; D727S; Q931K
B2: Variant 7: P450-BM3 variant of SEQ ID NO: 2: V51S; D118R; T179V; L219Y; P351T; N579T; T582A; E624D; D727S (protein)
chain: B1 chain with T179V, H236K, T353S, S632A, K931Q
modifications: P450_BM3
notes: D118R; T179V; L219Y; P351T; N579T; T582A; E624D; D727S
B3: Variant 8: P450-BM3 variant of SEQ ID NO: 2: D118R; L219Y; K236H; S353T; N579T; T582A; E624D; D727S (protein)
chain: B1 chain with S51V, T351P, S632A, K931Q
modifications: P450_BM3
notes: L219Y; K236H; S353T; N579T; T582A; E624D; D727S
B4: SEQ ID NO: 8: P450-BM3 parental backbone from the commercially available MCYP panel (MCYP-0343; Codexis) (protein)
chain: MTIKEMPQPKTFGELKNLPLLNTDKPVQALMKIADELGEIFKFEAPGRVTRYLSSQRLIKEACDESRFDKNLSQALKFARDFAGDGLFTSWTHEKNWKKAHNILLPSFSQQAMKGYHAMMVDIAVQLVQKWERLNADEYIEVPEDMTRLTLDTIGLCGFNYRFNSFYRDQPHPFIISMIRALDEVMNKLQRANPDDPAYDENKRQFQEDIKVMNDLVDKIIADRKASGEQSDDLLTQMLNGKDPETGEPLDDGNISYQIITFLIAGHETTSGLLSFALYFLVKNPHVLQKVAEEATRVLVDPVPSYKQVKQLKYVGMVLNEALRLWPTAPAFSLYAKEDTVLGGEYPLEKGDEVMVLIPQLHRDKTIWGDDVEEFRPERFENPSAIPQHAFKPFGNGQRACIGQQFALHEATLVLGMMLKHFDFEDHTNYELDIKETLTLKPEGFVVKAKSKKIPLGGIPSPSTEQSAKKVRKKAENAHNTPLLVLYGSNMGTAEGTARDLADIAMSKGFAPQVATLDSHAGNLPREGAVLIVTASYNGHPPDNAKQFVDWLDQASADEVKGVRYSVFGCGDKNWATTYQKVPAFIDETLAAKGAENIADRGEADASDDFEGTYEEWREHMWSDVAAYFNLDIENSEDNKSTLSLQFVDSAADMPLAKMHGAFSTNVVASKELQQPGSARSTRHLEIELPKEASYQEGDHLGVIPRNYEGIVNRVTARFGLDASQQIRLEAEEEKLAHLPLAKTVSVEELLQYVELQDPVTRTQLRAMAAKTVCPPHKVELEALLEKQAYKEQVLAKRLTMLELLEKYPACEMKFSEFIALLPSIRPRYYSISSSPRVDEKQASITVSVVSGEAWSGYGEYKGIASNYLAELQEGDTITCFISTPQSEFTLPKDPETPLIMVGPGTGVAPFRGFVQARKQLKEQGQSLGEAHLYFGCRSPHEDYLYQEELENAQSEGIITLHTAFSRMPNQPKTYVQHVMEQDGKKLIELLDQGAHFYICGDGSQMAPAVEATLMKSYADVHQVSEADARLWLQQLEEKGRYAKDVWAG
modifications: P450_BM3
B5: Variant 9: P450-BM3 variant of SEQ ID NO: 8: Y52F; D232H; E349K; E619D; D722S; R762H (protein)
chain: B4 chain with Y52F, D232H, E349K, E619D, D722S, R762H
modifications: P450_BM3
notes: D232H; E349K; E619D; D722S; R762H

test: Validation of generalist properties: oxidation of diclofenac by lyophilized P450-BM3 variant, UPLC-MS; type: biochemical; details: [Diclofenac] = 1 mM
Protocol: (§1) For the production of lyophilized protein powders, LB agar plates supplemented with chloramphenicol (30 μg/mL) were streaked with E. coli containing a desired B. megaterium P450-BM3 variant in an IPTG-inducible vector. The plates were grown at 37° C. for 16 hrs before single clones were selected to inoculate a 15 mL Falcon™ tube (Fisher) containing TB media (3 mL) supplemented with chloramphenicol (30 μg/mL). The tube was shaken at 200 rpm, 30° C., and 85% humidity for 20-24 h to grow the cultures to saturation. Then, 2.5 mL of the overnight culture was used to inoculate sterile 1 L flasks containing TB medium (250 mL) supplemented with chloramphenicol (30 μg/mL), trace element solution (as described above), and 0.05 g/L ammonium iron (III) citrate. After being shaken at 250 rpm, 30° C., and 85% humidity to an OD600 of 0.8-1.2, P450 expression was induced by addition of IPTG (500 uM) and the heme precursor 5-aminolevulinic acid (5-ALA) to a final concentration of 500 uM. The cultures were grown for additional 20-24 hours and centrifuged in pre-weighed 250 mL centrifuge bottles for 20 minutes at 4000 rpm, 4° C. The supernatants were discarded, and the centrifuge bottles containing cell pellets were weighed. The pellets were resuspended in 50 mM potassium phosphate buffer with 2 mM DTT, pH 8.0 (5 mL of buffer per gram of cell pellet). The cells were lysed using a microfluidizer homogenizer, and the suspensions of cells and lysate were collected in sterile 50 mL centrifuge tubes. The samples were centrifuged for 30 minutes at 10,000 rpm, 4° C. The clarified lysate was collected into a plastic petri plate and frozen at −80° C. prior to lyophilization. The enzyme-containing lysates were lyophilized using standard methods known in the art.
(§2) Enzyme stocks (˜12 μM) were prepared by dissolving ˜20 mg of each enzyme in 100 mM potassium phosphate buffer, pH 8.0 (1 mL). The concentration of each enzyme stock solution was determined by the UV-visible absorption spectroscopy (after centrifugation to remove particulates) and diluted to standardize at 12 μM heme protein. Substrate solutions were prepared by dissolving each substrate in DMSO to reach a final concentration of 20 mM or 40 mM. Reaction mix (235 μL) followed by enzyme solution (50 μL) was added to the plates. The substrate stock solution was added to the enzyme solutions (15 μL at the two different concentrations). Each reaction contained 100 mM potassium phosphate, 1.0 mM NADP+, 25 mM glucose, 0.5 mg/mL glucose dehydrogenase, 5% DMSO and substrate at 1 or 2 mM. Loratadine, imatinib, and gefitinib (See, FIG. 1) were selected as substrates in addition to diclofenac to validate improved BM3 variants. The reactions were shaken at 450 rpm at 30° C. over 24 hours. All reactions were diluted with acetonitrile to a final concentration of 0.5 mM substrate. The plates were then centrifuged at 3,000 g for 1 hour at 20° C. The supernatant was diluted 1:1 with acetonitrile, filtered using a 0.4 micron filter, and analyzed by UPLC-MS.
(§3) For UPLC-MS analysis, the quenched and filtered reactions were transferred to 96-well HTP plates for analysis by UPLC on a Waters Acquity H-class system equipped with an autosampler. 1 uL of quenched sample was injected onto an Acquity UPLC HSS T3 column, 100 Å, (1.8 um; 2.1×100 mm). The column was eluted at a constant flow rate of 0.6 mL/min; conditions with solvent A (0.05% trifluoroacetic acid v/v, in H2O) and solvent B (0.05% trifluoroacetic acid v/v, in acetonitrile) used to elute the products of the reaction were: 0-2 min, A/B 95:5; 2-2.9 min, A/B 5:95; 2.9-3 min, A/B 95:5; 3-3.5 min, A/B 95:5. Column eluent was monitored by PDA (200-600 nm) prior to MS analysis in positive ESI mode (desolvation temperature 350° C., 3.25 kV spray voltage, cone voltage 25V). The column eluent was diverted to waste for the first 0.7 minutes of the run. For the remainder of the LC run, both MS (m/z 95-600 scan range) and MS/MS were collected. […]

Molecule | % Conv.
B1 | ++ (5.01-10.00)
B2 | + (0-5.00)
B3 | + (0-5.00)
B4 | ++ (5.01-10.00)
B5 | ++++ (15.01-20.00)

same assay, conditions: [Diclofenac] = 1 mM; TON = [substrate]*% conversion/[P450]

Molecule | TON
B1 | ‡‡ (1001-5000)
B2 | ‡‡ (1001-5000)
B3 | ‡‡ (1001-5000)
B4 | ‡‡ (1001-5000)
B5 | ‡‡‡ (5001-10000)

same assay, conditions: [Diclofenac] = 1 mM; fold improvement over parent MCYP-1.2-A05

Molecule | FIOPC (A05)
B1 | **** (10.01-15.00)
B2 | **** (10.01-15.00)
B3 | **** (10.01-15.00)

same assay, conditions: [Diclofenac] = 1 mM; fold improvement over parent MCYP-P1.2-B02

Molecule | FIOPC (B02)
B5 | * (0.0-3.0)

test: Validation of generalist properties: oxidation of loratadine by lyophilized P450-BM3 variant, UPLC-MS; type: biochemical; details: [Loratadine] = 1 mM
Protocol: as §1, §2, §3

Molecule | % Conv.
B1 | ++ (5.01-10.00)
B2 | ++ (5.01-10.00)
B3 | ++ (5.01-10.00)
B4 | ++ (5.01-10.00)
B5 | ++ (5.01-10.00)

same assay, conditions: [Loratadine] = 1 mM; TON = [substrate]*% conversion/[P450]

Molecule | TON
B1 | ‡‡ (1001-5000)
B2 | ‡‡ (1001-5000)
B3 | ‡‡ (1001-5000)
B4 | ‡‡ (1001-5000)
B5 | ‡‡ (1001-5000)

same assay, conditions: [Loratadine] = 1 mM; fold improvement over parent MCYP-1.2-A05

Molecule | FIOPC (A05)
B1 | **** (10.01-15.00)
B2 | **** (10.01-15.00)
B3 | **** (10.01-15.00)

same assay, conditions: [Loratadine] = 1 mM; fold improvement over parent MCYP-P1.2-B02

Molecule | FIOPC (B02)
B5 | * (0.0-3.0)

test: Validation of generalist properties: oxidation of imatinib by lyophilized P450-BM3 variant, UPLC-MS; type: biochemical; details: [Imatinib] = 1 mM
Protocol: as §1, §2, §3

Molecule | % Conv.
B1 | ++++ (15.01-20.00)
B2 | ++ (5.01-10.00)
B3 | ++++ (15.01-20.00)
B4 | ++++ (15.01-20.00)
B5 | ++++ (15.01-20.00)

same assay, conditions: [Imatinib] = 1 mM; TON = [substrate]*% conversion/[P450]

Molecule | TON
B1 | ‡‡‡‡ (10000-50000)
B2 | ‡‡‡‡ (10000-50000)
B3 | ‡‡‡ (5001-10000)
B4 | ‡‡‡‡ (10000-50000)
B5 | ‡‡‡‡ (10000-50000)

same assay, conditions: [Imatinib] = 1 mM; fold improvement over parent MCYP-1.2-A05

Molecule | FIOPC (A05)
B1 | * (0.0-3.0)
B2 | ** (3.01-5.0)
B3 | * (0.0-3.0)

same assay, conditions: [Imatinib] = 1 mM; fold improvement over parent MCYP-P1.2-B02

Molecule | FIOPC (B02)
B5 | * (0.0-3.0)

test: Validation of generalist properties: oxidation of gefitinib by lyophilized P450-BM3 variant, UPLC-MS; type: biochemical; details: [Gefitinib] = 1 mM
Protocol: as §1, §2, §3

Molecule | % Conv.
B1 | + (0-5.00)
B2 | + (0-5.00)
B3 | + (0-5.00)
B4 | + (0-5.00)
B5 | + (0-5.00)

same assay, conditions: [Gefitinib] = 1 mM; TON = [substrate]*% conversion/[P450]

Molecule | TON
B1 | ‡ (0-1000)
B2 | ‡ (0-1000)
B3 | ‡ (0-1000)
B4 | ‡ (0-1000)
B5 | ‡ (0-1000)

same assay, conditions: [Gefitinib] = 1 mM; fold improvement over parent MCYP-1.2-A05

Molecule | FIOPC (A05)
B1 | * (0.0-3.0)
B2 | * (0.0-3.0)
B3 | * (0.0-3.0)

same assay, conditions: [Gefitinib] = 1 mM; fold improvement over parent MCYP-P1.2-B02

Molecule | FIOPC (B02)
B5 | * (0.0-3.0)
